The values below come from US20170313750A1 (Novo Nordisk, published 2017).

Assay [1] deals with T1, human Y4 receptor (P50391, NPY4R_HUMAN, Uniprot) (human, UniProt P50391 1-375).
T1 construct: whole, on cells; Assayed as membrane preparations of the expressing cells
Put plainly: SPA vs [125I]-PP.
Experimental: (§1) Human Y receptor SPA binding assay were performed in white 96-well plates in a total volume of 200 μl per well.
(§2) Plates were sealed and incubated at +25° C. for 2 hours in a plate shaker set at 400 rpm and thereafter centrifuged at 1500 rpm for 10 minutes prior to reading of luminescence on a microplate scintillation and luminescence counter.

Assay [2] has as its target T2, human Y2 receptor (P49146, NPY2R_HUMAN, Uniprot) (human, UniProt P49146 1-381).
T2 sequence (looked up): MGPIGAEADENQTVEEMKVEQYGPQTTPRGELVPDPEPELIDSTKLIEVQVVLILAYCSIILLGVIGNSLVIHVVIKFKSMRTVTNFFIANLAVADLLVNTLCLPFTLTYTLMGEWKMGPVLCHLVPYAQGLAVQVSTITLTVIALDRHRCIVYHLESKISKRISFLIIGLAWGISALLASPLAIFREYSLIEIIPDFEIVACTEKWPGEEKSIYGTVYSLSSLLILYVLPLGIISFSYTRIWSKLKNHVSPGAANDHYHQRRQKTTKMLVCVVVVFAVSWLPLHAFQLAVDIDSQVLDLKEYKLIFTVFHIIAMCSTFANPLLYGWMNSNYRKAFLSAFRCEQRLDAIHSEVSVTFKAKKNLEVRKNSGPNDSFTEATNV
The assay is described as follows: cell-based or functional assay.

The target of assay [3] is T2, human Y2 receptor (P49146, NPY2R_HUMAN, …). The assay is described as follows: SPA vs [125I]-PYY(1-36).
Experimental: as §1, §2
The target in assay [4] is T3, human Y5 receptor (Q15761, NPY5R_HUMAN, Uniprot) (human, UniProt Q15761 1-445).
T3 construct: whole, on cells; Assayed as membrane preparations of the expressing cells
T3 sequence (looked up): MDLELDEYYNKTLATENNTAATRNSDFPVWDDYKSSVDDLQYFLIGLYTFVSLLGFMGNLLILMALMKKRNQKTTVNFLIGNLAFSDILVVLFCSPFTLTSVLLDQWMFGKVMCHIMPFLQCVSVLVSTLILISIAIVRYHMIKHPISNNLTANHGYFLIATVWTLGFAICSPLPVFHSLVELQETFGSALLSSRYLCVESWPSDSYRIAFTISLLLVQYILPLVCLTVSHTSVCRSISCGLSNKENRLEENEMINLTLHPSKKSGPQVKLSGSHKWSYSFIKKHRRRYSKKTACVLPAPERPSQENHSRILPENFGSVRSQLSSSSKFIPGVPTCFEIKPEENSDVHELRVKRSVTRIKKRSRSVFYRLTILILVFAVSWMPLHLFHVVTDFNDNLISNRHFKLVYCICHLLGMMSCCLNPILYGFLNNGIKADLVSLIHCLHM
The assay is described as follows: SPA vs [125I]-PYY(1-36).
Experimental: as §1, §2

Assay [5] concerns the target T1, human Y4 receptor (P50391, NPY4R_HUMAN, …). The assay is described as follows: ratio of SPA values, Y2 as reference.
Experimental: as §1, §2
Assay [6] deals with T3, human Y5 receptor (Q15761, NPY5R_HUMAN, …). Put plainly: ratio of SPA values, Y2 as reference.
Experimental: as §1, §2

Numbered stars: 1 amine (or outer) side, 2 acyl side, 3 side chain; on linkers, the order of the positions; unused ones are H or OH. Side chains are listed from the residue outwards. * marks the point of attachment. C18 diacid = O=C(O)CCCCCCCCCCCCCCCCC(=O)*; γGlu = O=C(O)[C@H](CCC(=O)[*:2])N[*:1]; Isovaleryl = CC(C)CC(=O)*; AEEA = NCCOCCOCC(=O)O

T1 sequence (P50391 whole entry, one chain of several): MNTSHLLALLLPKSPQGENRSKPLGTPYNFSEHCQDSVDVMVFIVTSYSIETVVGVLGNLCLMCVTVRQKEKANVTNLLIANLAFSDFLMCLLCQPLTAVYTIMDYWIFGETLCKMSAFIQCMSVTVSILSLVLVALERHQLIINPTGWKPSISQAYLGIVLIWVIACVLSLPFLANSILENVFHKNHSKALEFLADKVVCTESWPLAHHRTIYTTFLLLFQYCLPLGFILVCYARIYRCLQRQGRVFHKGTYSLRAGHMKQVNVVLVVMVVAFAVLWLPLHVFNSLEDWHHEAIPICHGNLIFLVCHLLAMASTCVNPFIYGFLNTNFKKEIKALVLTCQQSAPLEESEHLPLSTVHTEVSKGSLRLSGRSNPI

B1: N{alpha-4}-(3-Methylbutanoyl)-N{Epsilon-10}-[(4S)-4-carboxy-4-[[2-[2-[2-[[(4S)-4-carboxy-4-(17-carboxyheptadecanoylamino)butanoyl]amino]ethoxy]ethoxy]-acetyl]am … (peptide)
peptide: Isovaleryl-RPEAPGK([γGlu-AEEA-γGlu-C18 diacid])DASPEELQRYYAELRHYYNWLTRQRY-NH2
SMILES: CC(C)CC(=O)N[C@@H](CCCNC(=N)N)C(=O)N1CCC[C@H]1C(=O)N[C@@H](CCC(=O)O)C(=O)N[C@@H](C)C(=O)N1CCC[C@H]1C(=O)NCC(=O)N[C@@H](CCCCNC(=O)CC[C@H](NC(=O)COCCOCCNC(=O)CC[C@H](NC(=O)CCCCCCCCCCCCCCCCC(=O)O)C(=O)O)C(=O)O)C(=O)N[C@@H](CC(=O)O)C(=O)N[C@@H](C)C(=O)N[C@@H](CO)C(=O)N1CCC[C@H]1C(=O)N[C@@H](CCC(=O)O)C(=O)N[C@@H](CCC(=O)O)C(=O)N[C@@H](CC(C)C)C(=O)N[C@@H](CCC(N)=O)C(=O)N[C@@H](CCCNC(=N)N)C(=O)N[C@@H](Cc1ccc(O)cc1)C(=O)N[C@@H](Cc1ccc(O)cc1)C(=O)N[C@@H](C)C(=O)N[C@@H](CCC(=O)O)C(=O)N[C@@H](CC(C)C)C(=O)N[C@@H](CCCNC(=N)N)C(=O)N[C@@H](Cc1c[nH]cn1)C(=O)N[C@@H](Cc1ccc(O)cc1)C(=O)N[C@@H](Cc1ccc(O)cc1)C(=O)N[C@@H](CC(N)=O)C(=O)N[C@@H](Cc1c[nH]c2ccccc12)C(=O)N[C@@H](CC(C)C)C(=O)N[C@H](C(=O)N[C@@H](CCCNC(=N)N)C(=O)N[C@@H](CCC(N)=O)C(=O)N[C@@H](CCCNC(=N)N)C(=O)N[C@@H](Cc1ccc(O)cc1)C(N)=O)[C@@H](C)O
notes: also called Compound 53; 53
B1: the Ki – broadly, the dissociation constant of the complex between target and ligand, obtained from inhibition or displacement – is 9.29 µM in assay [1], 1.15 nM in assay [3] and 452 nM in assay [4]. For the same molecule, the “Y2 EC50, Actone functional potency assay” value in assay [2] amounted to 0.77 nM. Besides, in assay [5], the “Ratio of Y4/Y2 EC50 values” was determined as 8080. Further, in assay [6], the “Ratio of Y5/Y2 EC50 values” came out at 393.

B2: N{alpha-4}-(3-Methylbutanoyl)-N{Epsilon-10}-[(4S)-4-carboxy-4-[[2-[2-[2-[[(4S)-4-carboxy-4-(17-carboxyheptadecanoylamino)butanoyl]amino]ethoxy]ethoxy]-acetyl]am … (peptide)
peptide: Isovaleryl-RPEAPPK([γGlu-AEEA-γGlu-C18 diacid])DASPEELQRYYASLRHYYNWLTRQRY-NH2
SMILES: CC(C)CC(=O)N[C@@H](CCCNC(=N)N)C(=O)N1CCC[C@H]1C(=O)N[C@@H](CCC(=O)O)C(=O)N[C@@H](C)C(=O)N1CCC[C@H]1C(=O)N1CCC[C@H]1C(=O)N[C@@H](CCCCNC(=O)CC[C@H](NC(=O)COCCOCCNC(=O)CC[C@H](NC(=O)CCCCCCCCCCCCCCCCC(=O)O)C(=O)O)C(=O)O)C(=O)N[C@@H](CC(=O)O)C(=O)N[C@@H](C)C(=O)N[C@@H](CO)C(=O)N1CCC[C@H]1C(=O)N[C@@H](CCC(=O)O)C(=O)N[C@@H](CCC(=O)O)C(=O)N[C@@H](CC(C)C)C(=O)N[C@@H](CCC(N)=O)C(=O)N[C@@H](CCCNC(=N)N)C(=O)N[C@@H](Cc1ccc(O)cc1)C(=O)N[C@@H](Cc1ccc(O)cc1)C(=O)N[C@@H](C)C(=O)N[C@@H](CO)C(=O)N[C@@H](CC(C)C)C(=O)N[C@@H](CCCNC(=N)N)C(=O)N[C@@H](Cc1c[nH]cn1)C(=O)N[C@@H](Cc1ccc(O)cc1)C(=O)N[C@@H](Cc1ccc(O)cc1)C(=O)N[C@@H](CC(N)=O)C(=O)N[C@@H](Cc1c[nH]c2ccccc12)C(=O)N[C@@H](CC(C)C)C(=O)N[C@H](C(=O)N[C@@H](CCCNC(=N)N)C(=O)N[C@@H](CCC(N)=O)C(=O)N[C@@H](CCCNC(=N)N)C(=O)N[C@@H](Cc1ccc(O)cc1)C(N)=O)[C@@H](C)O
notes: also called Compound 56; 56
As to B2, the Ki was found to be 4.41 µM in assay [1], 1.4 nM in assay [3] and 279 nM in assay [4]. For the same molecule, in assay [2], the “Y2 EC50, Actone functional potency assay” value turned out to be 0.54 nM. Besides, in assay [5], the “Ratio of Y4/Y2 EC50 values” amounted to 3060. The “Ratio of Y5/Y2 EC50 values” in assay [6] was 193.
